Reference: article PMC7084321, “Structural and Functional Characterization of New SsoPox Variant Points to the Dimer Interface as a Driver for the Increase in Promiscuous Paraoxonase Activity” (International Journal of Molecular Sciences, 2020)

Target: the molecule itself
Assay: crystal structure; sitting drop vapor diffusion at 19 °C; space group P212121, two dimers per asymmetric unit; 4Mut at 6.0 mg/mL in 20 mM HEPES-NaOH pH 8.5, 0.5 mM CoCl2, 200 mM NaCl

B1: SsoPox V82L/C258L/I261F/W263A (4Mut) (enzyme, Saccharolobus solfataricus, UniProt Q97VT7 1-314, looked up)
chain: MRIPLVGKDSIESKDIGFTLIHEHLRVFSEAVRQQWPHLYNEDEEFRNAVNEVKRAMQFGVKTIVDPTVMGLGRDIRFMEKLVKATGINLVAGTGIYIYIDLPFYFLNRSIDEIADLFIHDIKEGIQGTLNKAGFVKIAADEPGITKDVEKVIRAAAIANKETKVPIITHSNAHNNTGLEQQRILTEEGVDPGKILIGHLGDTDNIDYIKKIADKGSFIGLDRYGLDLFLPVDKRNETTLRLIKDGYSDKIMISHDYLCTFDAGTAKPEYKPKLAPRWSITLIFEDTIPFLKRNGVNEEVIATIFKENPKKFFS
notes: SsoPox, phosphotriesterase-like lactonase from Saccharolobus solfataricus, with four substitutions; primers run from the start codon (NdeI site) to behind the stop codon (HindIII site); Two cobalt atoms per protein by ICP-MS; also called SsoPox 4Mut; SsoPox-4Mut; source: E. coli BL21(DE3), pT7-7-4Mut, purified (thermoprecipitation, Q-Sepharose, Superdex 75, MonoQ)
B1: binds.
